Measured values published in patent publication US20260109776A1 (Amgen, published 2026).
Where two headings read alike, the source gives them in different places.

T1: mouse CD40 on cells (mouse, UniProt P27512 20-289)
T1 construct: whole, on cells; also called mouse CD40 on HEK293 cells; CD40 on mouse B cells
T1 sequence (looked up): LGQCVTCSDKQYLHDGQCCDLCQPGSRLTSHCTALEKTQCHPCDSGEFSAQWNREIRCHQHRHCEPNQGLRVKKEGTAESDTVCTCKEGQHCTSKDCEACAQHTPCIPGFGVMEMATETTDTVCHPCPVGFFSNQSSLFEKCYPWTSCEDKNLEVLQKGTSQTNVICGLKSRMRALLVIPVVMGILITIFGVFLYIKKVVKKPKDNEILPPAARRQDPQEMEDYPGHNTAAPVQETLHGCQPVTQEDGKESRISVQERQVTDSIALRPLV

T2: cynomolgus monkey CD40 (cynomolgus monkey, UniProt P25942 21-193 (human entry), limits assumed)
T2 chain: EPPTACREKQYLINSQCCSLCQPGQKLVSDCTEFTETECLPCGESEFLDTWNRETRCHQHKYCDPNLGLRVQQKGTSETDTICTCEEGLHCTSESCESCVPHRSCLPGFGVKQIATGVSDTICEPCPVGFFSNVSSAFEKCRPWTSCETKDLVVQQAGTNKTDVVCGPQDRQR


Columns and labels:
human CD40 on cells [1] = target: T3, human CD40 on cells (human, UniProt P25942 21-277); assay: cell-based or functional assay
Target sequence in this assay (P25942 21-277 limits assumed): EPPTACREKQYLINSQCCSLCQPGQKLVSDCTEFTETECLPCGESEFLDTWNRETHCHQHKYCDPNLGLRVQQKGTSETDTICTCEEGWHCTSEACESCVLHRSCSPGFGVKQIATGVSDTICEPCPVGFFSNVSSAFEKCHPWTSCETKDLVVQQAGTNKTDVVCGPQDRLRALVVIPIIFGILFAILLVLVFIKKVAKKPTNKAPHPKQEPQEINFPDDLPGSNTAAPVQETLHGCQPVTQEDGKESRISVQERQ

human CD40 on cells [2] = target: T3, human CD40 on cells; assay: cell-based or functional assay; remark: listed apart in the source
mouse CD40 on cells = target: T1, mouse CD40 on cells; assay: flow cytometry, HEK293 transfectants
cynomolgus monkey CD40 = target: T2, cynomolgus monkey CD40; assay: Octet
Protocol: (§1) The binding affinity of anti-human CD40 antibodies to human and cynomolgus monkey CD40 was measured by Octet assay (Table 3), quantifying association rate (Kon), disassociation rate (Kdis), and equilibrium binding constant (KD). Cross-reactivity of anti-CD40 antibodies to related TNF receptor superfamily (TNFRSF) members was evaluated by expressing human TNFR1, TNFR2, TNFR10, or TNFR14 on HEK293 cells by transient transfection of expression vectors encoding these genes. Binding of indicated anti-human CD40 antibody to these transfected cells was determined by flow cytometry. […] Cross-reactivity of anti-CD40 antibodies to cynomolgus monkey and mouse CD40 was evaluated by expressing cynomolgus monkey or mouse CD40 on HEK293 cells by transient transfection of expression vectors encoding these genes. Binding of indicated anti-human CD40 antibody to cells overexpressing cynomolgus monkey and mouse CD40 was determined by flow cytometry.

human CD40 = human CD40 (human, UniProt P25942 21-193, limits assumed); assay: Octet
Sequence of human CD40 (P25942 21-193 limits assumed): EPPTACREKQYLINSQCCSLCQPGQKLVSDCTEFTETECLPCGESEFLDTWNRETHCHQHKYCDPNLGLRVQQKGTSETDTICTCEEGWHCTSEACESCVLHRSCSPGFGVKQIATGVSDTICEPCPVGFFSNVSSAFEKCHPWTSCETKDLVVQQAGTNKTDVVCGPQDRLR
Protocol: as §1

human CD40 on cells [3] = target: T3, human CD40 on cells; assay: flow cytometry, labelled CD40L on CD40-293T cells, antibody at 2.5 ug/ml
Protocol: (§2) Percent ligand binding inhibition was calculated as [(CD40L binding gMFI in the absence of anti-CD40)−(CD40L binding gMFI in the presence of anti-CD40)]/(CD40L binding gMFI in the absence of anti-CD40). gMFI: geometric mean fluorescent intensity. All anti-CD40 antibodies show minimal effects on the ability of CD40L to bind to the CD40 receptor (Table 7).
Target sequence in this assay (P25942 21-277 limits assumed): as the sequence (P25942 21-277 limits assumed) above

human CD40 on cells [4] = target: T3, human CD40 on cells; assay: flow cytometry, labelled CD40L on CD40-293T cells, antibody at 10 ug/ml
Protocol: as §2
Target sequence in this assay (P25942 21-277 limits assumed): as above

human B cell proliferation, no crosslinking, % Max Activity (human CD40 on cells [1]) [%] | human B cell proliferation, no crosslinking, EC50 (human CD40 on cells [1]) [nM] | human B cell proliferation, with protein G crosslinking, % Max Activity (human CD40 on cells [1]) [%] | human B cell proliferation, with protein G crosslinking, EC50 (human CD40 on cells [1]) [nM] | human B cell proliferation, no crosslinking, EC50 (human CD40 on cells [2]) [nM] | human B cell proliferation, no crosslinking, Max Fold Change (human CD40 on cells [2]) [fold] | human B cell proliferation, with protein G crosslinking, EC50 (human CD40 on cells [2]) [nM] | human B cell proliferation, with protein G crosslinking, Max Fold Change (human CD40 on cells [2]) [fold] | binding result (mouse CD40 on cells) | Kd (cynomolgus monkey CD40) [nM] | koff (cynomolgus monkey CD40) [s⁻¹] | kon (cynomolgus monkey CD40) [M⁻¹ s⁻¹] | Kd (human CD40) [nM] | koff (human CD40) [s⁻¹] | kon (human CD40) [M⁻¹ s⁻¹] | Ligand Binding Inhibition (%) (human CD40 on cells [3]) | Ligand Binding Inhibition (%) (human CD40 on cells [4]) | Binder
4.4 | > 16.7 | 65.9 | 0.37 | > 16.7 | 1.35 | 0.235 | 18.2 | no binding | 0.39 | 0.000244 | 612000 | 0.41 | 0.000164 | 398000 | -11 | 1 | 29H10 (antibody, V domains shown, also called 4877-1) VH: QVQLVQSGAEVTKPGASVKVSCKASGYTFAGYYMHWVRQAPGQGLEWMGWINPHSGGTNYAQKFQDRVTMTRDTSINTAYMELSRLRSDDTAVYYCARERISMVRGVGHNWFAPWGQGTLVTVSS VL: DIQMTQSPSSLSASVGDRVTITCRASQDISNNLAWFQQKPGKPPKSLMYAASSLHSGVPSTFSGSGSGTDFTFTISSLQPEDFATYYCQQYNSYPLTFGGGTKVEIRR
6.5 | > 16.7 | 73.4 | 0.26 | > 16.7 | 1.21 | 0.237 | 18.2 | no binding | 1.04 | 0.000577 | 556000 | 1.34 | 0.00068 | 509000 | -8 | 11 | 33H6 (antibody, IgG4, V domains shown, also called 4883-1) VH: QVQLVQSGAEVKKPGASVKVSCKASGYTFPGYYMYWLRQAPGQGLEWMGWINPDSGDTNYAQKFQGRVTMTRDTSISTAFMELSRLRSDDTAVYYCAREKPRYFDSFYYYLMDVWGQGTTVTVSS VL: DIQMTQSPSSLSASVGDRVTITCRAGQNISRHLNWYQQNPGKAPKVLIHPASSLPSGVPSRFSGSGSGTDFSLTISSLQPEDFGTYFCQQSYSTPPTFGGGTKVELKR
8.2 | > 16.7 | 81.9 | 0.3 | > 16.7 | 1.83 | 0.558 | 16.9 | no binding | 4.02 | 0.00021 | 52200 | 6.87 | 0.000443 | 64500 | 1 | 14 | 36F3 (antibody, IgG4, V domains shown, also called 4891-1) VH: QVQLQQSGPGLVKPSQTLSLTCAISGDSVSSSRTAWNWIRQSPSRGLEWLGRTYYRSKWYHDYSVSVKSRITIDPDTSKNQFSLQLNSVTPEDTAVYYCARGAAPFDYWGQGTLVTVSS VL: EIVLTQSPGTLSLSPGERATLSCRASQSVSSNYLAWYQQKPGQAPRALIYAASNRAAGISDRFSGSGSGTDFTLTISRLEPEDFAVYFCQQYGSSPLTFGGGTKVEIKR
0.4 | > 16.7 | 80.9 | 0.3 | > 16.7 | 1.19 | 0.504 | 27.1 | no binding | 0.73 | 0.000387 | 531000 | 1.1 | 0.000672 | 612000 | -19 | 6 | 37A6 (antibody, IgG4, V domains shown, also called 4865-1) VH: QVQLVESGGGLVKPGGSLRLSCAASEFTFSDYYMSWIRQAPGKGLEWVSYISRSGDTIYYADSVKGRFTISRDNAKNSLYLQMNGLRAEDTAVYYCARDLAAGATGGLDCWGQGTLVTVSS VL: SYELTQPPSVSVSPGQTASITCSGERLGNKYICWYQQKPGQSPVLVIYQDFKRPSGIPERFSGSNSGITATLTISGTQAMDEADYYCQAWDSRTVVFGGGTKLTVLG
4.4 | > 16.7 | 120 | 0.3 | > 16.7 | 1.33 | 0.371 | 24.2 | no binding | 0.62 | 0.000314 | 506000 | 0.55 | 0.00031 | 556000 | -15 | 51 | 35F11 (antibody, IgG4, V domains shown, also called 4868-1) VH: QVQLVESGGGVVQPGRSLRLSCAASGFTLSSYGMHWVRQAPGKGLEWVAVIWYDGSNKYYADSVKGRVTISRDNSKNTLYLQMNSLRAEDTAVYYCTRDGRNYVYFDNWGQGTLVTVSS VL: QSALTQPRSVSGSPGQSVTISCTGTSSDVGGYIFVSWYQQHPGKAPKLMIYDVSKRPSGVPDRFSGSKSVNTASLTISGLQAEDETDYYCCSYAGNYTYVFGTGTKVTVLG
6.1 | > 16.7 | 76.6 | 0.21 | > 16.7 | 1.24 | 0.529 | 23 | no binding | 0.73 | 0.000376 | 518000 | 1.02 | 0.000614 | 599000 | 7 | 3 | 39C2 (antibody, IgG4, V domains shown, also called 4887-1) VH: QVQLVQSGTEVKKPGASVKVSCKASGYTFPGYYMHWVRQAPGQGLEWMGWINPDSGGTKYTQKFQGRVTLTRDASVSTAYIDLNRLRSDDTAVYYCARERCRTTNCYLDYWGQGSLVTVSS VL: QSALTQPASVSGSPGQSITISCTGTSSDVGNYNLVSWYQQHPGKAPKLMIYEVNRRPSGVSNRFSGSKSGNTASLTISGLQAEDEAEYYCCSYAGRDTFVVFGGGTKLTVLG
6 | > 16.7 | 70.5 | 0.5 | > 16.7 | 1.19 | 0.43 | 18.1 | no binding | 1.72 | 0.00193 | 1.13e+06 | 0.88 | 0.00108 | 1.23e+06 | 21 | 14 | 4G7 (antibody, IgG4, V domains shown, also called 4869-1) VH: QVQLVQSGAEVKKPGASVKVSCKASGYTFAGYYMHWVRQAPGQGLEWMGWINPDSGGTNFAQQFQGRVTMTRDTSISTAYMEVSRLRSDDTAVFYCAREKITMTGIYFDYWGQGTLVTVSS VL: DIQMTQSPSSLSASVGDILTITCRASQNITTYLNWYQQKPGKAPNLLISAASRLRSGVPSRFSGSGSGTDFTLTISSLQPVDFTTFYCQQTFTTPWTFGQGTKVEIKR
